# Measurements from article PMC12409746.
# Molecular target: GST (glutathione S-transferase) released from the GST-P fusion protein (S. japonicum)
# Experiment: SEC
substance,measurement,value
GST (glutathione S-transferase) released from the GST-P fusion protein (natural protein),stoichiometry N,2
